We go through 1 molecule from article PMC4359947 (The international journal of biochemistry & cell biology, 2015).

The experiment has as its target MAGI-1 PDZ1 domain, Cy3-labelled, tag-free (Cy3 label (approximately 1 dye/peptide)). The experiment can be described thus: FRET or BRET.

Ends that are not written are not given here.

Usually Kd stands for the constant that tells how readily two partners part at equilibrium. GAIPVMIPAQSKDGSIV (also: Cy5 label (approximately 1 dye/peptide), site not given here) [CAR (CAR^Ex7) C-terminus, Cy5-labelled, tag-free] returned a Kd above 500 nM.
